Where a chain is given by its changes, count along the chain named. Names and notes keep the numbering of the source.
T1: extracellular domain of human BCMA (human, UniProt Q02223 1-54)
T1 construct: amine-linked to Octet AR2G tips; also called hsBCMA; BCMA (human)
T1 sequence: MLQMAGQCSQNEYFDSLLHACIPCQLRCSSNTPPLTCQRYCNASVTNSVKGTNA

B1: AB200_Fab (D99D) (Fab, V domains shown)
VH: QVQLVQSGAEVKKPGSSVKVSCKASGGTFSNYWMHWVRQAPGQGLEWMGATYRGHSDTYYNQKFKGRVTITADKSTSTAYMELSSLRSEDTAVYYCARGAIYDGYDVLDNWGQGTLVTVSS
VL: DIQMTQSPSSLSASVGDRVTITCSASQDISNYLNWYQQKPGKAPKLLIYYTSNLHSGVPSRFSGSGSGTDFTLTISSLQPEDFATYYCQQYRKLPWTFGQGTKLEIKR
B2: AB200_Fab + D99H (Fab, V domains shown)
VH: B1 VH with D103H
VL: B1 VL
notes: also called AB200_D99H; D99H variant
B3: AB200_Fab + D99S (Fab, name in Kabat numbering, V domains shown)
VH: B1 VH with D103S
VL: B1 VL
B4: AB200_Fab + D99Q (Fab, name in Kabat numbering, V domains shown)
VH: B1 VH with D103Q
VL: B1 VL
B5: AB200_Fab + D99E (Fab, name in Kabat numbering, V domains shown)
VH: B1 VH with D103E
VL: B1 VL
B6: AB200_Fab + D99N (Fab, name in Kabat numbering, V domains shown)
VH: B1 VH with D103N
VL: B1 VL
notes: also called D99N variant
B7: AB200_Fab + D99T (Fab, name in Kabat numbering, V domains shown)
VH: B1 VH with D103T
VL: B1 VL
B8: AB200-(2Vk30)_R2-VH-v19 (Fab, V domains shown)
VH: B1 VH with M34I, A50G, G54S, D57T, G66S, D103H, Y105F, L108I
VL: B1 VL with S24R, D28S, N31S, Y50A, H55Q, S56I, K93R, L94I
B9: AB200-(2Vk30)_R2-VH-v16 (Fab, V domains shown)
VH: B1 VH with T28S, M34I, A50G, G54S, Y59N, G66S, Y102F, D103H, L108I
VL: B1 VL with S24R, D28S, N31S, Y50A, H55Q, S56I, K93R, L94I
B10: AB200-(2Vk30)_R2-VH-v13 (Fab, V domains shown)
VH: B1 VH with T28S, M34I, A50G, G54S, N61A, G66S, D103H, L108I, D109E
VL: B1 VL with S24R, D28S, N31S, Y50A, H55Q, S56I, K93R, L94I
B11: AB200-(2Vk30)_R2-VH-v10 (Fab, V domains shown)
VH: B1 VH with F29Y, M34I, G54S, Y59N, F64Y, G66S, D103H, L108I, D109E
VL: B1 VL with S24R, D28S, N31S, Y50A, H55Q, S56I, K93R, L94I
B12: AB200-(2Vk30)_R2-VH-v4 (Fab, V domains shown)
VH: B1 VH with S30T, M34I, G54S, Y59N, N61A, G66S, D103H, L108I, D109E
VL: B1 VL with S24R, D28S, N31S, Y50A, H55Q, S56I, K93R, L94I
B13: AB200-(2Vk31)_R2-CDR2-hs-v3 (Fab, V domains shown)
VH: QVQLVQSGAEVKKPGSSVKVSCKASGGTFTNYWIHWVRQAPGQGLEWMGGIIPIFGTANYAQKFQGRVTITADKSTSTAYMELSSLRSEDTAVYYCARGAVYHGYDVIDNWGQGTLVTVSS
VL: B1 VL with S24R, D28S, N31S, Y50A, H55Q, S56I, Y91F, K93R
B14: AB200-(2Vk31)_R2-CDR2-hs-v1 (Fab, V domains shown)
VH: B13 VH with V101I, Y102F
VL: B1 VL with S24R, D28S, N31S, Y50A, H55Q, S56I, Y91F, K93R
B15: AB200-(2Vk31)_R2-VH-v42 (Fab, V domains shown)
VH: B1 VH with S30T, M34I, A50G, G54I, F64Y, G66S, Y102F, D103H, L108I
VL: B1 VL with S24R, D28S, N31S, Y50A, H55Q, S56I, Y91F, K93R
B16: AB200-(2Vk31)_R2-VH-v29 (Fab, V domains shown)
VH: B1 VH with M34I, G54S, D57T, Q62E, G66S, D103H, Y105F, L108I
VL: B1 VL with S24R, D28S, N31S, Y50A, H55Q, S56I, Y91F, K93R
B17: AB200-(2Vk31)_R2-VH-v21 (Fab, V domains shown)
VH: B1 VH with M34I, A50G, G54S, N61A, G66S, Y102F, D103H, L108I
VL: B1 VL with S24R, D28S, N31S, Y50A, H55Q, S56I, Y91F, K93R
B18: AB200-(2Vk31)_R2-VH-v12 (Fab, V domains shown)
VH: B1 VH with F29Y, M34I, G54S, D57T, F64Y, G66S, D103H, Y105F, L108I
VL: B1 VL with S24R, D28S, N31S, Y50A, H55Q, S56I, Y91F, K93R
B19: AB200-(2Vk31)_R2-VH-v34 (Fab, V domains shown)
VH: B1 VH with M34I, G54S, H55Q, N61A, G66S, D103H, L108I, D109E
VL: B1 VL with S24R, D28S, N31S, Y50A, H55Q, S56I, Y91F, K93R
B20: AB200-(2Vk31)_R2-VH-v66 (Fab, V domains shown)
VH: B1 VH with M34I, G54I, D57T, F64Y, G66S, Y102F, D103H, L108I
VL: B1 VL with S24R, D28S, N31S, Y50A, H55Q, S56I, Y91F, K93R
B21: AB200-(2Vk31)_R2-VH-v50 (Fab, V domains shown)
VH: B1 VH with F29Y, M34I, A50G, G54I, Y59N, G66S, D103H, L108I, D109E
VL: B1 VL with S24R, D28S, N31S, Y50A, H55Q, S56I, Y91F, K93R
B22: AB200-(2Vk31)_R2-VH-v47 (Fab, V domains shown)
VH: B1 VH with F29Y, M34I, G54I, D57T, Q62E, G66S, Y102F, D103H, L108I
VL: B1 VL with S24R, D28S, N31S, Y50A, H55Q, S56I, Y91F, K93R
B23: AB200-(2Vk31)_R2-VH-v33 (Fab, V domains shown)
VH: B1 VH with M34I, G54S, Y59N, Q62E, G66S, D103H, L108I, D109E
VL: B1 VL with S24R, D28S, N31S, Y50A, H55Q, S56I, Y91F, K93R
B24: AB200-(2Vk31)_R2-VH-v17 (Fab, V domains shown)
VH: B1 VH with T28S, M34I, G54S, H55Q, N61A, G66S, Y102F, D103H, L108I
VL: B1 VL with S24R, D28S, N31S, Y50A, H55Q, S56I, Y91F, K93R
B25: AB200-(2Vk31)_R2-VH-v57 (Fab, V domains shown)
VH: B1 VH with M34I, A50G, G54I, D57T, G66S, K74E, I101V, D103H, L108I
VL: B1 VL with S24R, D28S, N31S, Y50A, H55Q, S56I, Y91F, K93R
B26: AB200-(2Vk31)_R2-VH-v2 (Fab, V domains shown)
VH: B1 VH with S30T, M34I, G54S, D57T, Y59N, G66S, I101V, D103H, L108I
VL: B1 VL with S24R, D28S, N31S, Y50A, H55Q, S56I, Y91F, K93R
B27: AB200-(2Vk31)_R2-VH-v73 (Fab, V domains shown)
VH: B1 VH with M34I, G54I, N61A, F64Y, G66S, I101V, D103H, L108I
VL: B1 VL with S24R, D28S, N31S, Y50A, H55Q, S56I, Y91F, K93R
B28: AB200-(2Vk31)_R2-VH-v18 (Fab, V domains shown)
VH: B1 VH with T28S, M34I, G54S, N61A, Q62E, G66S, I101V, D103H, L108I
VL: B1 VL with S24R, D28S, N31S, Y50A, H55Q, S56I, Y91F, K93R
B29: AB200-(2Vk31)_R2-VH-v25 (Fab, V domains shown)
VH: B1 VH with M34I, G54S, D57T, Y59N, G66S, D103H, Y105F, L108I
VL: B1 VL with S24R, D28S, N31S, Y50A, H55Q, S56I, Y91F, K93R
B30: AB200-(2Vk31)_R2-CDR1-hs-v3 (Fab, V domains shown)
VH: QVQLVQSGAEVKKPGSSVKVSCKASGGTFSSYAISWVRQAPGQGLEWMGATYRSQSDTYYNQKYKSRVTITADKSTSTAYMELSSLRSEDTAVYYCARGAVYHGYDVIDNWGQGTLVTVSS
VL: B1 VL with S24R, D28S, N31S, Y50A, H55Q, S56I, Y91F, K93R
B31: AB200-(2Vk31)_R2-VH-v5 (Fab, V domains shown)
VH: B1 VH with S30T, M34I, A50G, G54S, Q62E, G66S, Y102F, D103H, L108I
VL: B1 VL with S24R, D28S, N31S, Y50A, H55Q, S56I, Y91F, K93R

Each binder was assayed against T1, extracellular domain of human BCMA (assay: Octet BLI; Fab 200 nM).

Binder	Kd	koff	kon
B1	3.45 nM	0.00058 s⁻¹	170000 M⁻¹ s⁻¹
B2	2.08 nM	0.00037 s⁻¹	180000 M⁻¹ s⁻¹
B3	3.86 nM	0.00044 s⁻¹	110000 M⁻¹ s⁻¹
B4	3.06 nM	0.00053 s⁻¹	170000 M⁻¹ s⁻¹
B5	5.92 nM	0.00091 s⁻¹	150000 M⁻¹ s⁻¹
B6	1.23 nM	0.00023 s⁻¹	190000 M⁻¹ s⁻¹
B7	3.72 nM	0.0003 s⁻¹	80000 M⁻¹ s⁻¹

The binders below were run against T2, extracellular domain of rhesus monkey BCMA (rhesus monkey, UniProt F7FFA0 1-53) (assay: Octet BLI; Fab 200 nM).
T2 construct: extracellular domain; also called RhBCMA
T2 sequence (F7FFA0 entry or part of it): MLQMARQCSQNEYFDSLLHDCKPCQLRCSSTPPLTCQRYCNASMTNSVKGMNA

Binder	Kd
B8	25.4 nM
B9	178 nM
B10	144 nM
B11	330 nM
B12	125 nM

Target: T1, extracellular domain of human BCMA
Experiment: Octet BLI; Fab 200 nM
Remark: another data set of the same source

Binder	Kd
B8	14.6 nM
B9	74.6 nM
B10	44.7 nM
B11	85.8 nM
B12	46.4 nM

Target: T2, extracellular domain of rhesus monkey …
Experiment: Octet BLI; Fab 200 nM
Remark: another data set of the same source

Binder	Kd	koff	kon
B1	5.89 nM	0.00118 s⁻¹	200000 M⁻¹ s⁻¹
B2	5.7 nM	0.00105 s⁻¹	180000 M⁻¹ s⁻¹
B3	9.75 nM	0.00114 s⁻¹	120000 M⁻¹ s⁻¹
B4	7.63 nM	0.0014 s⁻¹	180000 M⁻¹ s⁻¹
B5	13.6 nM	0.00219 s⁻¹	160000 M⁻¹ s⁻¹
B6	3.32 nM	0.00066 s⁻¹	200000 M⁻¹ s⁻¹
B7	11.5 nM	0.00099 s⁻¹	90000 M⁻¹ s⁻¹

Target: T2, extracellular domain of rhesus monkey …
Experiment: Octet BLI; Fab 200 nM
Remark: another data set of the same source

Binder	Kd
B13	216 nM
B14	448 nM
B15	23.5 nM
B16	9.34 nM
B17	29.7 nM
B18	18.4 nM
B19	18 nM
B20	20.8 nM
B21	196 nM
B22	15.9 nM
B23	50.4 nM
B24	16.9 nM
B25	20.8 nM
B26	55.6 nM
B27	7.72 nM
B28	14.9 nM
B29	57.3 nM
B30	540 nM
B31	10.4 nM

Target: T1, extracellular domain of human BCMA
Experiment: Octet BLI; Fab 200 nM
Remark: another data set of the same source

Binder	Kd
B13	126 nM
B14	241 nM
B15	4.33 nM
B16	6.02 nM
B17	10.7 nM
B18	13 nM
B19	5.13 nM
B20	13.7 nM
B21	90 nM
B22	17.7 nM
B23	46 nM
B24	5.77 nM
B25	11.9 nM
B26	25 nM
B27	1.32 nM
B28	3.55 nM
B29	32.8 nM
B30	319 nM
B31	3.65 nM
